± gives the uncertainty stated by the source.
Experiment: amyloid nucleation score (Sup35N fusion, yeast selection) (log enrichment); library NNK3; higher = more nucleation; inactive = no reads after selection
Outline: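 DiMSum was used to calculate nucleation scores as log enrichment of output over input reads, centred on the mode score of non-aggregating sequences. Sequences with fewer than 100 input reads were not scored. Input and output came from Illumina sequencing of plasmid inserts in psi-negative yeast expressing peptides of 20 random codons fused to Sup35N, induced 24 hours with 100 μM copper sulfate and then grown 7 days at 30°C on medium lacking adenine and uracil.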
With FSLVAKMSFESLATNRWDSR the amyloid nucleation score was 1.41 ± 0.15. In the case of FSLVMDCI, the amyloid nucleation score is reported as “inactive”. FSMSPSTTYRAFGHYSPGQH showed an amyloid nucleation score of -0.074 ± 0.5. In the case of FSNSSGNGEGDLRENLQNKM, the amyloid nucleation score is reported as “inactive”. For FSQWT, the amyloid nucleation score was “inactive”. For FSRTSCVGDCYCGAYNRLSG, the amyloid nucleation score was 2.02 ± 0.095. Work on FSSQYMSCIVRRHGGNLDAC yielded an amyloid nucleation score of 0.033 ± 0.39. For FSSRKSLCGLDLKECFTSVE, the amyloid nucleation score was “inactive”. In the case of FSTVKQLYCFMTPIYASFNS, the amyloid nucleation score is reported as -0.531 ± 1. In the case of FSTVTYQGVTALVNQSSVTT, the amyloid nucleation score is reported as “inactive”. For FSVHRGLLFITQGSDVAEHV, the amyloid nucleation score was “inactive”. For FSYCG, the amyloid nucleation score was “inactive”. With FSYLLYRRNDTCPQALRLRR the amyloid nucleation score was “inactive”. For FSYRPSNCYIR, the amyloid nucleation score was “inactive”. With FTEKGGLPC the amyloid nucleation score was “inactive”. FTFGCSLCTMYTANSHFRGC gave an amyloid nucleation score of 1.87 ± 0.061. In the case of FTFNSWSSWWNTSSFLIKGQ, the amyloid nucleation score is reported as “inactive”. In the case of FTGAMAFFLWFIQDYWFTGW, the amyloid nucleation score is reported as “inactive”. With FTHNHK the amyloid nucleation score was “inactive”. With FTIGRYILFVMKDFVFLWFV the amyloid nucleation score was “inactive”. With FTPARRLSRLIVFCFG the amyloid nucleation score was “inactive”. In the case of FTRNEQP, the amyloid nucleation score is reported as “inactive”. With FTRTREMENCNFLNFYRYMV the amyloid nucleation score was “inactive”. With FTSKKLLCLDKPFNIGDCGY the amyloid nucleation score was “inactive”. In the case of FTTRFTFTIP, the amyloid nucleation score is reported as 1.24 ± 0.17. Work on FTYVLTLMSFNGGPRGRYGW yielded an amyloid nucleation score of 2.66 ± 0.068. In the case of FVCLLCPMYYVHSTMWMSAR, the amyloid nucleation score is reported as 2.01 ± 0.057. With FVCLSNIHMGTKTVILAMCL the amyloid nucleation score was “inactive”. In the case of FVEYSSVQYAACNLDRLFLF, the amyloid nucleation score is reported as “inactive”. In the case of FVGHDTELNPHGRYGCLD, the amyloid nucleation score is reported as “inactive”. In the case of FVGYINILLIADSALGVRIL, the amyloid nucleation score is reported as 1.64 ± 0.076. For FVLICGYFIFIWTVSFNCYW, the amyloid nucleation score was “inactive”. For FVMGMNAVQRSLSSIYTLCV, the amyloid nucleation score was “inactive”. In the case of FVQNDNYKWVWL, the amyloid nucleation score is reported as “inactive”. For FVRGTVWKSTGDVMDAVPAT, the amyloid nucleation score was “inactive”. With FVSSYNIENV the amyloid nucleation score was “inactive”. With FVSVLACSDKLGK the amyloid nucleation score was “inactive”. Substance FVTFGYQWYRRVAGALGCLE has an amyloid nucleation score of 0.37 ± 0.57. FVTYDPYTFIDYFIVSHPRL gave an amyloid nucleation score of 0.61 ± 0.17. With FVVELCVDPTFKLYD the amyloid nucleation score was “inactive”. With FVVGIFYSIQYIECSRVSSY the amyloid nucleation score was -0.106 ± 0.55. With FVVKYNWRYDLLIPYQMDLI the amyloid nucleation score was “inactive”. For FVVWCDVTGS, the amyloid nucleation score was “inactive”. Work on FVWNERWKIRLYLMSFGRGR yielded an amyloid nucleation score of 2.35 ± 0.065. FVYFFCVSLTSSSPSDCDWP gave an amyloid nucleation score of 1.6 ± 0.069. For FVYSMKSCSYRDLGLNSYLL, the amyloid nucleation score was “inactive”. In the case of FWAYERVGSRSAFGWLGREA, the amyloid nucleation score is reported as 0.705 ± 0.21. For FWFFTSMLVSVCLMRASRCL, the amyloid nucleation score was “inactive”. With FWFFYNICRMLKSVT the amyloid nucleation score was “inactive”. In the case of FWHNSG, the amyloid nucleation score is reported as “inactive”. With FWKACTCI the amyloid nucleation score was “inactive”. With FWKWL the amyloid nucleation score was “inactive”. For FWLLVFPGNMMSS, the amyloid nucleation score was 0.818 ± 0.14. In the case of FWSGIWSNTFRFYGAVIWPG, the amyloid nucleation score is reported as “inactive”. For FYAYVSVDTVCSVAICLICT, the amyloid nucleation score was “inactive”. In the case of FYFWLASLCSSDFSFYKVKL, the amyloid nucleation score is reported as “inactive”. In the case of FYGLYFYHSVH, the amyloid nucleation score is reported as “inactive”. In the case of FYHDMIWTILLDYTRRFHKL, the amyloid nucleation score is reported as “inactive”. With FYIICWWVLDQDFCAWL the amyloid nucleation score was “inactive”. For FYLIRKTIFLGSISLVWYGV, the amyloid nucleation score was “inactive”. For FYMAKRICKVQHGVNGPYAK, the amyloid nucleation score was “inactive”. With FYMFDSRLLFWRYCCWKFSY the amyloid nucleation score was “inactive”. For FYPKQYQKLSYVWWY, the amyloid nucleation score was “inactive”. For FYRSLGMYRDWTMSIFGKYL, the amyloid nucleation score was “inactive”. For FYSFCQSKSLMTFSGDLPPS, the amyloid nucleation score was “inactive”. For FYSLIMHLKRLSYVA, the amyloid nucleation score was “inactive”. Substance FYVNCFSL has an amyloid nucleation score of 1.01 ± 0.11. Substance FYVTMTAASFPDFRHCVVND has an amyloid nucleation score of 0.01 ± 0.57. With FYYPRS the amyloid nucleation score was “inactive”. With GACVKDSLVAGNSSMTSAGL the amyloid nucleation score was 3.9 ± 0.061. With GAFMLEGAIRRFS the amyloid nucleation score was “inactive”. For GAGPGLITMSNSN, the amyloid nucleation score was “inactive”. For GASSIFLIVRSDGSYFSPD, the amyloid nucleation score was “inactive”. GASVGFEVHCNFVVNLNVQH gave an amyloid nucleation score of 2.18 ± 0.066. In the case of GCDILQFRHCF, the amyloid nucleation score is reported as “inactive”. With GCFNGNSYRSLPFWFMSTCL the amyloid nucleation score was “inactive”. GCGVC showed an amyloid nucleation score of -0.609 ± 0.98. In the case of GCIRLGLNSVGVNNIVA, the amyloid nucleation score is reported as “inactive”. With GCLYGSSSV the amyloid nucleation score was “inactive”. In the case of GCTFRNWIWWLHRFDKMR, the amyloid nucleation score is reported as 0.861 ± 0.15. For GCVAAMS, the amyloid nucleation score was “inactive”. In the case of GDLVSIWAMRFELRKSKEMR, the amyloid nucleation score is reported as “inactive”. For GDNICQNVFTDGKVDAFFLT, the amyloid nucleation score was “inactive”. With GDYGCFSLMQTHTEEEILMR the amyloid nucleation score was “inactive”. Work on GDYSWSM yielded an amyloid nucleation score of 0.167 ± 0.42. In the case of GECWAPVYDFWI, the amyloid nucleation score is reported as “inactive”. In the case of GERWVQKIQ, the amyloid nucleation score is reported as “inactive”. With GFCKIAAMGFAYHDGAFDGF the amyloid nucleation score was “inactive”. Work on GFCLQSNLCIIGRSFWTFLI yielded an amyloid nucleation score of 0.629 ± 0.55. For GFDMRVGDRMYRDYGMMVGA, the amyloid nucleation score was “inactive”. With GFFYRDDARNFVLVTNSWRL the amyloid nucleation score was “inactive”. In the case of GFIGK, the amyloid nucleation score is reported as “inactive”. For GFKDLWYCDGF, the amyloid nucleation score was “inactive”. For GFRKWKLIVD, the amyloid nucleation score was “inactive”. With GFSHANGHGTEKDFSSLIPV the amyloid nucleation score was “inactive”. With GFYSLISQQQFVLNFNGYKM the amyloid nucleation score was 2.34 ± 0.086. For GFYVCPMGCNEYRVLICSDS, the amyloid nucleation score was “inactive”. In the case of GGENLTFLRSAFCSNWA, the amyloid nucleation score is reported as “inactive”. With GGLSL the amyloid nucleation score was “inactive”. Substance GGLSS has an amyloid nucleation score of -0.809 ± 0.71. With GGMGSLCSTREGMDWCPRGY the amyloid nucleation score was “inactive”. In the case of GGRVNWM, the amyloid nucleation score is reported as “inactive”. With GGSIVVCLRHHRDLSMHSWD the amyloid nucleation score was “inactive”. For GGTNVFGAWSHNQRILCQKG, the amyloid nucleation score was “inactive”. With GGVHDSLNIYGFRYGLRKGV the amyloid nucleation score was “inactive”. In the case of GGWLLSEGLC, the amyloid nucleation score is reported as “inactive”. With GGYVRSNCGRGVVPMVTRMA the amyloid nucleation score was “inactive”. In the case of GHCKCGPVGPNKRTAR, the amyloid nucleation score is reported as “inactive”. With GHIWFIAEVNSICYLLFLVS the amyloid nucleation score was “inactive”. For GHKVSSIDNHFPILSSEAFK, the amyloid nucleation score was “inactive”. In the case of GHSSSNMGNVHFKFLC, the amyloid nucleation score is reported as “inactive”. For GIFIKFGYR, the amyloid nucleation score was “inactive”. With GIFSRPFRAGRGRVIHNGPD the amyloid nucleation score was “inactive”. In the case of GIFTLFYYVMMKLIFDFFTV, the amyloid nucleation score is reported as “inactive”. In the case of GIFVSMTLFILKILFARYVR, the amyloid nucleation score is reported as “inactive”. For GIIVLLVPETQCRCFGDLIR, the amyloid nucleation score was “inactive”. For GILRIWNDLSLRFDKIWWG, the amyloid nucleation score was “inactive”. For GILYGPCSFWDFVRLEMSRF, the amyloid nucleation score was -0.504 ± 0.8. For GIMDLDEGLET, the amyloid nucleation score was “inactive”. GISCNLYVINGICSWYFLVT showed an amyloid nucleation score of 1.56 ± 0.07. In the case of GISPQC, the amyloid nucleation score is reported as “inactive”. In the case of GISRLFVGMKKAVTWSAKER, the amyloid nucleation score is reported as “inactive”. In the case of GISSKFRSPNRGNCYYRDIL, the amyloid nucleation score is reported as “inactive”. With GISYNSV the amyloid nucleation score was “inactive”. With GIVALCRTCDNRRMRVSVGV the amyloid nucleation score was “inactive”. In the case of GIYVVLNCISIFRLWLLSER, the amyloid nucleation score is reported as “inactive”. GKFFMVSRYCESSSLRFESM showed an amyloid nucleation score of 1.15 ± 0.17. In the case of GKIAVS, the amyloid nucleation score is reported as “inactive”. GKINLVTCFVCLSTPFKHSL gave an amyloid nucleation score of 1.74 ± 0.067. With GKRNEWN the amyloid nucleation score was “inactive”. In the case of GKSRFRLRDAWWRLVTQQRR, the amyloid nucleation score is reported as “inactive”. GLAASSTNAFTRHVLNRV gave an amyloid nucleation score of 1.51 ± 0.13. In the case of GLANNYGQYRITSRAKLPRQ, the amyloid nucleation score is reported as “inactive”. For GLAVNNRPDCEVSSLNRLLM, the amyloid nucleation score was “inactive”. With GLCRLIDLKM the amyloid nucleation score was “inactive”. Substance GLDYLLHAIYFECRQSGGSR has an amyloid nucleation score of 0.983 ± 0.17. For GLIDLRVCEGRQFARTGSEM, the amyloid nucleation score was 0.132 ± 0.36. In the case of GLITWT, the amyloid nucleation score is reported as “inactive”. For GLLRTLSQDMTCGRDAGQGN, the amyloid nucleation score was “inactive”. For GLNMVWFVHLSVNV, the amyloid nucleation score was “inactive”. With GLNYS the amyloid nucleation score was “inactive”. For GLPNGGDPCLREVGSHLVTH, the amyloid nucleation score was -0.347 ± 1.4. With GLPNLASYSPPPINAKYIGD the amyloid nucleation score was “inactive”. For GLSCDYCTNLVMCCDPQL, the amyloid nucleation score was 0.06 ± 0.25. In the case of GLSDGWVGHRSYGSENVLLK, the amyloid nucleation score is reported as “inactive”. In the case of GLTVVSE, the amyloid nucleation score is reported as “inactive”. In the case of GLVWCFCLCSITSYIMVILF, the amyloid nucleation score is reported as “inactive”. With GLYKNK the amyloid nucleation score was “inactive”. GMLPTGRYDRAYSFWGNWRR showed an amyloid nucleation score of 1.08 ± 0.18. GMSCWGSMQWNVL showed an amyloid nucleation score of 0.766 ± 0.17. Work on GMVNVARRKMSGLR yielded an amyloid nucleation score of 1.09 ± 0.16. For GNCSWRVYGISSGFLRHGAV, the amyloid nucleation score was “inactive”. For GNFRSELITMVSCTMECRFL, the amyloid nucleation score was “inactive”. With GNGNFIRY the amyloid nucleation score was “inactive”. For GNIDCSTVFVSRNNCD, the amyloid nucleation score was “inactive”. For GNIFRRYTVPSDANTKTWIY, the amyloid nucleation score was “inactive”. For GNPRNMTVDDSDGKSFYFFY, the amyloid nucleation score was “inactive”. With GNVIMLLVTLASGCIPLSSE the amyloid nucleation score was “inactive”. For GPAVWPKWVSLAKWYPSEI, the amyloid nucleation score was “inactive”. GPDYHKHYRTYLPRTAFVGF showed an amyloid nucleation score of 1.27 ± 0.17. In the case of GPMNLMRSVRYALSRSYLLL, the amyloid nucleation score is reported as “inactive”.

From the supplement of paper PMC12042874
